# Experimental data reported in IntAct's records for PubMed 24876499.
# B1: Phosphatidylinositol 4-kinase beta (Homo sapiens), Q9UBF8-2 (parent)
# chain: MGDTVVEPAPLKPTSEPTSGPPGNNGGSLLSVITEGVGELSVIDPEVAQKACQEVLEKVKLLHGGVAVSSRGTPLELVNGDGVDSEIRCLDDPPAQIREEEDEMGAAVASGTAKGARRRRQNNSAKQSWLLRLFESKLFDISMAISYLYNSKEPGVQAYIGNRLFCFRNEDVDFYLPQLLNMYIHMDEDVGDAIKPYIVHRCRQSINFSLQCALLLGAYSSDMHISTQRHSRGTKLRKLILSDELKPAHRKRELPSLSPAPDTGLSPSKRTHQRSKSDATASISLSSNLKRTASNPKVENEDEPVRLAPEREFIKSLMAIGKRLATLPTKEQKTQRLISELSLLNHKLPARVWLPTAGFDHHVVRVPHTQAVVLNSKDKAPYLIYVEVLECENFDTTSVPARIPENRIRSTRSVENLPECGITHEQRAGSFSTVPNYDNDDEAWSVDDIGELQVELPEVHTNSCDNISQFSVDSITSQESKEPVFIAAGDIRRRLSEQLAHTPTAFKRDPEDPSAVALKEPWQEKVRRIREGSPYGHLPNWRLLSVIVKCGDDLRQELLAFQVLKQLQSIWEQERVPLWIKPYKILVISADSGMIEPVVNAVSIHQVKKQSQLSLLDYFLQEHGSYTTEAFLSAQRNFVQSCAGYCLVCYLLQVKDRHNGNILLDAEGHIIHIDFGFILSSSPRNLGFETSAFKLTTEFVDVMGGLDGDMFNYYKMLMLQGLIAARKHMDKVVQIVEIMQQGSQLPCFHGSSTIRNLKERFHMSMTEEQLQLLVEQMVDGSMRSITTKLYDGFQYLTNGIM
# Variants of: B1
# Settings: with rb11a_human RAB11A
row,Variant,effect of a mutation on the interaction
1,F165A,disrupting interaction strength
2,G155D,decreasing interaction strength
3,Y159A,disrupting interaction strength
4,N162A,disrupting interaction strength
5,Y159A;N162A,disrupting interaction strength
